What all share (experiment): SA08b binding assay: competition with biotinylated SA08b for immobilized albumin
Test [1] has as its target T1, rat albumin (rat), P02770.
T1 chain: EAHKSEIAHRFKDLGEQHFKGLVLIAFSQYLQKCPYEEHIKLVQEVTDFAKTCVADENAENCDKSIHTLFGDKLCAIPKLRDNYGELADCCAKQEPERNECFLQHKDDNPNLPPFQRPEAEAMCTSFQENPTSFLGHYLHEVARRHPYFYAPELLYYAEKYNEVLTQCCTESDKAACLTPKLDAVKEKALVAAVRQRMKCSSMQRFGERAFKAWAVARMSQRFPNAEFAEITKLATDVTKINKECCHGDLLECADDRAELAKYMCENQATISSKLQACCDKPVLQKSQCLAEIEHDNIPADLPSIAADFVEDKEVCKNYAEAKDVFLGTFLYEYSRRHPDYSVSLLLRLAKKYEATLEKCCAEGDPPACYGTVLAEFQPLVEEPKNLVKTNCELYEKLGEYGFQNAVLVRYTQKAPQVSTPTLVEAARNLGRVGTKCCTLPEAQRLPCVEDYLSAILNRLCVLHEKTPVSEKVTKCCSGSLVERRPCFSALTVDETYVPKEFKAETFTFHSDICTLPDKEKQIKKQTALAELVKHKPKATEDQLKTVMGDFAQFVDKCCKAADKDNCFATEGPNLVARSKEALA

Test [2] deals with mouse albumin (mouse), P07724.
Chain of mouse albumin (mouse), P07724 (P07724 25-608 limits assumed): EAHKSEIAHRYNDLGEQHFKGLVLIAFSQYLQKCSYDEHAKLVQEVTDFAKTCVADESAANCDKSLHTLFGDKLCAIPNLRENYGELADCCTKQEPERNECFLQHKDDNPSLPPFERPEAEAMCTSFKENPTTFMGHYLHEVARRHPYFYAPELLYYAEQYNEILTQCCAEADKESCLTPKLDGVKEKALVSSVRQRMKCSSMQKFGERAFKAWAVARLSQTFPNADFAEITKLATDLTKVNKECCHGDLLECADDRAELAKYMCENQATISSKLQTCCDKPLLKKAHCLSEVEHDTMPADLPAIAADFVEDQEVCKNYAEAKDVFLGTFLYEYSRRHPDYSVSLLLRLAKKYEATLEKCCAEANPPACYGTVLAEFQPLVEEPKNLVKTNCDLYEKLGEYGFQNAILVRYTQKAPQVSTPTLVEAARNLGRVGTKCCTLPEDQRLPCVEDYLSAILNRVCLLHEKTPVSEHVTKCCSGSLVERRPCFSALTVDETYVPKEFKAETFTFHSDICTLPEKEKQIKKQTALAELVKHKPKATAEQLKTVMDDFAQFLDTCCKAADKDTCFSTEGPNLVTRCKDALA
Test [3] concerns the target T2, rabbit albumin (rabbit), P49065.
T2 chain: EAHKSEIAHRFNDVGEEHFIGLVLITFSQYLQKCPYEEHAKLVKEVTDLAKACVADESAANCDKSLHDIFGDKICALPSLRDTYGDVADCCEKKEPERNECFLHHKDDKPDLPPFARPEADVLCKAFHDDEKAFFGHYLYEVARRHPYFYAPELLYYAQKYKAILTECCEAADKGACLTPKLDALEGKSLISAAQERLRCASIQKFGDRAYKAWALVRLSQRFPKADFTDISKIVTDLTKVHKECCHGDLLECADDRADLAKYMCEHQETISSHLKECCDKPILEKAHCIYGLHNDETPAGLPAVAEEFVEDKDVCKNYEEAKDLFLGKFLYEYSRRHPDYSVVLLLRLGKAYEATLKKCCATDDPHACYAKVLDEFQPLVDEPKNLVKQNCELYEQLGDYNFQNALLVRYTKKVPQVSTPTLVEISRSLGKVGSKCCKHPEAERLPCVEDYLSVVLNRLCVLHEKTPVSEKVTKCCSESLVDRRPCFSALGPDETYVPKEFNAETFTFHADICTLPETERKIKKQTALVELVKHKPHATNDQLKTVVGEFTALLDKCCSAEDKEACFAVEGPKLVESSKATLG

What is called IC50 is the concentration that inhibits the measured activity by half. For RLMEDICLPRWGCLWEDD (modifications not checked) [SA10], the 50% inhibitory concentration (IC50) in test [1] stood at 77 nM; in test [2], 4 nM; in test [3], 86 nM.
Consider RLMEDICLARWGCLWEDD (modifications not checked) [SA13], for which the results for the IC50 in test [1], in test [2] and in test [3] were 2480 nM, 188 nM and 3200 nM, respectively.

These data come from US20040253247A1.
